Consider one protein from article PMC2850172.

Substrate in this series: O=c1ccn([C@@H]2O[C@H](COP(=O)(O)OP(=O)(O)O[C@H]3OC[C@@H](O)[C@H](O)[C@H]3O)[C@@H](O)[C@H]2O)c(=O)[nH]1
Briefly: cells, lysate or membranes. Conditions: Pichia-expressed; conditions not stated.

In general, Km refers to the concentration of substrate that gives half-maximal velocity.

B1: Pichia-expressed form of XT-I (Homo sapiens) (protein)
chain: PKCDISGKEAISALSRAKSKHCRQEIGETYCRHKLGLLMPEKVTRFCPLEGKANKNVQWDEDSVEYMPANPVRIAFVLVVHGRASRQLQRMFKAIYHKDHFYYIHVDKRSNYLHRQVLQVSRQYSNVRVTPWRMATIWGGASLLSTYLQSMRDLLEMTDWPWDFFINLSAADYPIRTNDQLVAFLSRYRDMNFLKSHGRDNARFIRKQGLDRLFLECDAHMWRLGDRRIPEGIAVDGGSDWFLLNRRFVEYVTFSTDDLVTKMKQFYSYTLLPAESFFHTVLENSPHCDTMVDNNLRITNWNRKLGCKCQYKHIVDWCGCSPNDFKPQDFHRFQQTARPTFFARKFEAVVNQEIIGQLDYYLYGNYPAGTPGLRSYWENVYDEPDGIHSLSDVTLTLYHSFARLGLRRAETSLHTDGENSCRYYPMGHPASVHLYFLADRFQGFLIKHHATNLAVSKLETLETWVMPKKVFKIASPPSDFGRLQFSEVGTDWDAKERLFRNFGGLLGPMDEPVGMQKWGKGPNVTVTVIWVDPVNVIAATYDILIESTAEFTHYKPPLNLPLRPGVWTVKILHHWVPVAETKFLVAPLTFSNRQPIKPEEALKLHNGPLRNAYMEQSFQSLNPVLSLPINPAQVEQARRNAASTGTALEGWLDSLVGGMWTAMDICATGPTACPVMQTCSQTAWSSFSPDPKSELGAVKPDGRLR
In the case of B1, the Michaelis-Menten constant (Km) came to 300 µM.
